Reference: patent US20140087995A1 (published 2014)
Numbered stars: 1 amine (or outer) side, 2 acyl side, 3 side chain; on linkers, the order of the positions; unused ones are H or OH. Bridge positions count the residues as written; N and C are the ends. Side chains are listed from the residue outwards. Ends that are not written are not given here. * marks the point of attachment. C20 diacid = O=C(O)CCCCCCCCCCCCCCCCCCC(=O)*; γGlu = O=C(O)[C@H](CCC(=O)[*:2])N[*:1]

T1: human amylin 3(a) receptor (human calcitonin receptor plus RAMP-3) (human, UniProt P30988 25-474; O60896 24-148, limits assumed)
T1 construct: whole, on cells; Whole cells in the luciferase assay (Assay II a); also called hAmylin-R; human amylin receptor
T1 sequence (looked up) 1: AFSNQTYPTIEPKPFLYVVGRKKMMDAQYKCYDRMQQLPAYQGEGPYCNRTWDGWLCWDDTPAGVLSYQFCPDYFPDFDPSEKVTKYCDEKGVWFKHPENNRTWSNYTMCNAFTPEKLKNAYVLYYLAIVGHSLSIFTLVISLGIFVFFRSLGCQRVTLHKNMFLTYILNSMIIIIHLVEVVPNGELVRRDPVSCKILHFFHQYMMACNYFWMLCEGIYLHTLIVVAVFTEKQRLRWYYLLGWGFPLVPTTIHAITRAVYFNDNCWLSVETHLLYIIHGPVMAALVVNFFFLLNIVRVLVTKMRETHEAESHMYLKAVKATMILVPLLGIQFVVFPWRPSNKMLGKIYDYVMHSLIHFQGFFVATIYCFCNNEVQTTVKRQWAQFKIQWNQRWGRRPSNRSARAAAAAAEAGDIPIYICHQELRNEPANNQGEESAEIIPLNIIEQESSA
T1 sequence (looked up) 2: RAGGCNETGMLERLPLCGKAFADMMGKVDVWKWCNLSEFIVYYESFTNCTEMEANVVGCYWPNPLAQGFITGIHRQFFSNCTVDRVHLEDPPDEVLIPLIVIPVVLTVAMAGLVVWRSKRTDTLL

T2: human calcitonin receptor (human, UniProt P30988 25-474)
T2 sequence (looked up): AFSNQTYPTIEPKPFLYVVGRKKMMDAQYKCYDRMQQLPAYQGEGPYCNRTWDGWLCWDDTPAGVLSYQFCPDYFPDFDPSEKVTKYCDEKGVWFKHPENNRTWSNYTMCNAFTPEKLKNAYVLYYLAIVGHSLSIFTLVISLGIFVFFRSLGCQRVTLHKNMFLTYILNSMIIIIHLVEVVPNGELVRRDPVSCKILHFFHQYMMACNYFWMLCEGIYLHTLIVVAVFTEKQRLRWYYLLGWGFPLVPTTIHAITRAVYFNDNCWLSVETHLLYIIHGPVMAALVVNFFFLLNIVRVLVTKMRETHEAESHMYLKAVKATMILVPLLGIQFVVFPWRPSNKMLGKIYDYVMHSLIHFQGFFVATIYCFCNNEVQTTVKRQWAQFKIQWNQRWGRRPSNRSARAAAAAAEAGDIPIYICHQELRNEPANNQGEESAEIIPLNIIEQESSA


Legend:
[1] = molecular target: T1, human amylin 3(a) receptor (human …); experiment: SPA competition binding, displacement of 125I-rat amylin from membranes of Amylin 3(a)/CRE-luc BHK cells (Assay V)
Summary of the method: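 SPA beads + BHK amylin 3(a)/CRE-luc membranes, 35 ng/μL final; buffer 50 mM Hepes pH 7.4, 1 mM CaCl2, 5 mM MgCl₂, 0.1% OA, 0.02% Tween20. 120 min, 25° C, shaken; scintillation count. IC₅₀ by one-site binding competition fit, taken as receptor affinity.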

[2] = molecular target: T1, human amylin 3(a) receptor (human …); experiment: cell-based or functional assay
[3] = molecular target: T2, human calcitonin receptor; experiment: cell-based or functional assay

Binder | IC50 [1] | Ratio hCT/hAmylin funct. [2] | hAmylin-R funct. EC50 [2] | hCTR funct. EC50 [3]
{C20 diacid-γGlu}-KCNTATCATQRLAEFLRHSSPNFGAIPSSTNVGSETY-NH2 (disulfide 2-7; SMILES CC[C@H](C)[C@H](NC(=O)[C@H](C)NC(=O)CNC(=O)[C@H](Cc1ccccc1)NC(=O)[C@H](CC(N)=O)NC(=O)[C@@H]1CCCN1C(=O)[C@H](CO)NC(=O)[C@H](CO)NC(=O)[C@H](Cc1c[nH]cn1)NC(=O)[C@H](CCCNC(=N)N)NC(=O)[C@H](CC(C)C)NC(=O)[C@H](Cc1ccccc1)NC(=O)[C@H](CCC(=O)O)NC(=O)[C@H](C)NC(=O)[C@H](CC(C)C)NC(=O)[C@H](CCCNC(=N)N)NC(=O)[C@H](CCC(N)=O)NC(=O)[C@@H](NC(=O)[C@H](C)NC(=O)[C@@H]1CSSC[C@H](NC(=O)[C@H](CCCCN)NC(=O)CC[C@H](NC(=O)CCCCCCCCCCCCCCCCCCC(=O)O)C(=O)O)C(=O)N[C@@H](CC(N)=O)C(=O)N[C@@H]([C@@H](C)O)C(=O)N[C@@H](C)C(=O)N[C@@H]([C@@H](C)O)C(=O)N1)[C@@H](C)O)C(=O)N1CCC[C@H]1C(=O)N[C@@H](CO)C(=O)N[C@@H](CO)C(=O)N[C@H](C(=O)N[C@@H](CC(N)=O)C(=O)N[C@H](C(=O)NCC(=O)N[C@@H](CO)C(=O)N[C@@H](CCC(=O)O)C(=O)N[C@H](C(=O)N[C@@H](Cc1ccc(O)cc1)C(N)=O)[C@@H](C)O)C(C)C)[C@@H](C)O, also called compound 22) | 0.794 nM | 3.8 | 0.27 nM | 1.03 nM
K([γGlu-C20 diacid])CNTATCATQRLAEFLRHSSPNFGAIPSSTNVGRETY-NH2 (disulfide 2-7; N-terminus assumed; SMILES CC[C@H](C)[C@H](NC(=O)[C@H](C)NC(=O)CNC(=O)[C@H](Cc1ccccc1)NC(=O)[C@H](CC(N)=O)NC(=O)[C@@H]1CCCN1C(=O)[C@H](CO)NC(=O)[C@H](CO)NC(=O)[C@H](Cc1c[nH]cn1)NC(=O)[C@H](CCCNC(=N)N)NC(=O)[C@H](CC(C)C)NC(=O)[C@H](Cc1ccccc1)NC(=O)[C@H](CCC(=O)O)NC(=O)[C@H](C)NC(=O)[C@H](CC(C)C)NC(=O)[C@H](CCCNC(=N)N)NC(=O)[C@H](CCC(N)=O)NC(=O)[C@@H](NC(=O)[C@H](C)NC(=O)[C@@H]1CSSC[C@H](NC(=O)[C@@H](N)CCCCNC(=O)CC[C@H](NC(=O)CCCCCCCCCCCCCCCCCCC(=O)O)C(=O)O)C(=O)N[C@@H](CC(N)=O)C(=O)N[C@@H]([C@@H](C)O)C(=O)N[C@@H](C)C(=O)N[C@@H]([C@@H](C)O)C(=O)N1)[C@@H](C)O)C(=O)N1CCC[C@H]1C(=O)N[C@@H](CO)C(=O)N[C@@H](CO)C(=O)N[C@H](C(=O)N[C@@H](CC(N)=O)C(=O)N[C@H](C(=O)NCC(=O)N[C@@H](CCCNC(=N)N)C(=O)N[C@@H](CCC(=O)O)C(=O)N[C@H](C(=O)N[C@@H](Cc1ccc(O)cc1)C(N)=O)[C@@H](C)O)C(C)C)[C@@H](C)O) | 0.232 nM | 6.5 | 0.421 nM | 2.75 nM
